This passage reports EC50 results from patent US20210379110A1 (LENTIGEN TECHNOLOGY, published 2021).

B1: human anti-CD19 ScFv binder M19217 (founder clone) (scFv)
chain: EVQLVQSGAEVKKPGASVKVSCKASGYTFTSYYMHWVRQAPGQGLEWMGIINPSGGSTSYAQKFQGRVTMTRDTSTSTVYMELSSLRSEDTAVYYCARSDRGITATDAFDIWGQGTMVTVSSGGGGSGGGGSGGGGSQSVLTQPPSVSVAPGQTAKITCGGSDIGNKNVHWYQQKPGQAPVLVVYDDYDRPSGIPERFSGSNSGDAATLTISTVEVGDEADYFCQVWDSSGDPYWVFGGGTQLTVLG
B2: human anti-CD19 ScFv binder M19217-38 (scFv)
chain: EVQLVQSGAEVKRPGASVKVSCKASGYTFTSYYMHWVRQAPGRGLEWMGLINPSGGSTSYAQEFQGRVTMTRDMSTSTVYMELSSLRSEDTAVYYCARSDRGISATDAFDIWGQGTMVTVSSGGGGSGGGGSGGGGSQSVLTQPPSVSVAPGQMAKITCGGSDIGNKNVHWYQQKPGQAPVLVVYDDYNRPSGIPERFSGSNSGDAATLTISTVEVGDEADYFCQVWDGSGDPYWVFGGGTQLTDLG
B3: human anti-CD19 ScFv binder M19217-2 (scFv)
chain: EVQLVQSGAEVKKPGASVKVSCKASGYTFTSYYMHWVRQAPGQGFEWMGLINPSGSSTSYAQKFQGRVTMTRDTSTSTVYMELSNLRSEDTAVYYCARSDRGITATDAFDIWGQGTMVTVSSGGGGSGGGGSGGGGSQSVLTQPPSVPVAPGQTAKIICGGSDIGNKNVHWYQQKPGQAPVLVVYDDYDRPSGIPERFSGSNSGDAATLTISTVEVGDEADYFCQVWDGSGDPYWVFGGGTQLTVLG
B4: human anti-CD19 ScFv binder M19217-23 (scFv)
chain: EVQLVQSGAEVKKPGASVKVSCKASGYTFTGYYMHWVRQAPGQGLEWIGLINPSGGSTSYEQKFQGRVAMTRDTSTSTVYMELSSLRSEDTAVYYCARSDRGITATDAFDIWGQGTMVTVSSGGGGSGGGGSGGGGSQSVLTQPPSVSVAPGQTAKITCGGSDIGDKNVHWYQQKPGQAPVLVVYDDYDRPSGIPERFSGSNSGDAATLTISTVEVGDEADYFCQVWDGIGDPYWVFGGGTQLTVLG
B5: human anti-CD19 ScFv binder M19217-7 (scFv)
chain: EVQLVQSGAEVNKPGASVKVSCKASGYTFTSYYMHWVRQAPGQGLEWMGMINPSGGSTSYAQKFQGRVTMTRDTSTSTVYMELSSLRSEDTAVYYCARSDRGITSTDAFDIWGQGTMVTVSSGGGGSGGGGSGGGGSQSVLTQPPSVSLAPGQTAKITCGGSDIGNKNVHWYQQKPGQAPVLVVYDDYNRPSGIPERFSGSNSGDSATLTISTVEVGDEADYFCQVWDGSGDPYWVFGGGTQLTVLG
B6: human anti-CD19 ScFv binder M19217-40 (scFv)
chain: EVQLVQSGAEVKRPGASVKVSCKASGYTFTSYYMHWVRQAPGQGLVWMGLINPSGGSTSYAQKFQGRVTMTRDTSTSTVYMELSSLRSEDTAVYYCARSDRGITATDAFDIWGQGTMVTVSSGGGGSGGGGSGGGGSQSVLTQPPSVSVAPGQTAKTTCGGSDIGNKNVHWYQQKPGQAPVLVVYDDYDRPSGIPERFSGSNSGDAATLTISTVEVGDEADYVCQVWDGSGDPYWVFGGGTQLTVLG
B7: human anti-CD19 ScFv binder M19217-29 (scFv)
chain: EVQLVQSGAEVKKPGASVKVSCKASGYTFTSYYMHWVRQAPGQGLEWMGMINPSGGSTSYAQKFQGRVTMTRDTSTSTVYMELSSLRSEDTAVYYCARSDRGITATDAFDIWGQGTMVTVSSGGGGSGGGGSGGGGSQSVLTQPPSVSVAPGQTAKITCGGSDIGNKNAHWYQQKPGQAPVLVVYDDYDRPSGISERFSGSNSGDAATLTISTVEVGDEADYFCQVWDGSGDPFWVFGGGTQLTVLG
B8: human anti-CD19 ScFv binder M19217-1 (scFv, V domains shown)
VH: EVQLVQSGAEVKKPGASVKVSCKASGYTFTSYYMHWVRQAPGQGLEWMGLINPSGGSTSYAQKFQGRVTMTRDTSTSTVYMELSSLRSEDTAVYYCARSDRGITATDAFDIWGQGTMVTVSS
VL: QSVLTQPPSVSVAPGRMAKITCGGSDIGNKNVHWYQQKPGQAPVLVVYDDYDRPSGIPERFSGSNSGDAATLTISTVEVGDEADYFCQVWDGSGDPYWMFGGGTQLTVLG
notes: also called scFv of LTG2065

Bounds are passed on as bounds.

The target in the assay is T1, recombinant human CD19 (labeled) (human, UniProt P15391 20-291, limits assumed).
T1 construct: Fluorescently labeled antigen titrated on yeast; The sorting steps used CD19-Fc/Anti-Hu-Fc, so the labeled antigen may be the Fc fusion; also called labeled CD19; recombinant human CD19 protein
T1 sequence (looked up): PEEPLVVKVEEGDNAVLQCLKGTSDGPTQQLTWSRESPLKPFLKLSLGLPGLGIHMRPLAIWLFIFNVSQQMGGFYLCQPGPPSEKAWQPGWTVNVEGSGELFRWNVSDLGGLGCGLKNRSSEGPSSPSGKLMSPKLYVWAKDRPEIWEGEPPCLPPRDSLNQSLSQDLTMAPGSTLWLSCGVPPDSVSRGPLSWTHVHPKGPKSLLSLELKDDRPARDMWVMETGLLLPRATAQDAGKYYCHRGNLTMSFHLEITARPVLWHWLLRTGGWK
Kind of assay: flow cytometry of yeast-displayed scFv with decreasing amounts of labeled CD19. How it is done: To increase the affinity of m19217, a yeast-display m19217 mutant scFv library was created by using error-prone PCR to create random point mutations in scFv gene sequences. After electroporation, the resulting mutant library was then grown overnight at 30° C. for 16 hours in SDCAA medium and then switched into SGCAA medium at 30° C. for another 16 hours. The mutant library was then sorted through MACS (immunomagentic column, Miltenyi Biotec) with CD19-Fc as the capture antigen to downsize the library and to increase the population of mutants that could bind to CD19-Fc. The strongest binders were then selected by double staining the pools with Anti-c-Myc-Alexa 488 and CD19-Fc/Anti-Hu-Fc and selecting for the binders that had the highest binding affinities as well as c-Myc expression levels. This process was then repeated two more times, until flow cytometry of yeast particles with fluorescently tagged antigen yielded average binding affinities of the mutant pools that were increased over the starting construct. Binding affinities were estimated by flow cytometry of yeast pools using decreasing amounts of labeled CD19.
On the technique in general: In flow cytometry, cells or beads pass a laser one at a time.
The term EC50 denotes the concentration at which the effect is half-maximal. For the molecule B1, the EC50 worked out at 0.5 µg/mL.

In the case of B2, the EC50 was under 0.01 µg/mL.

For the molecule B3, the EC50 is under 0.01 µg/mL.

Turning to B4, the EC50 was under 0.01 µg/mL.

Consider B5, for which the EC50 was under 0.01 µg/mL.

Turning to B6, the EC50 was under 0.01 µg/mL.

In the case of B7, the EC50 is under 0.01 µg/mL.

For the molecule B8, the EC50 was under 0.01 µg/mL.
